This note sets out measurements from US8604172B2, “Humanized antibody compositions and methods for binding lysophosphatidic acid” (Lpath, Inc., priority 2009, dated 2013).

Marks after values point to notes of the source that are not given here.

The test system of assay [1] is SKOV3 cell invasion. The assay is described as follows: SKOV3 invasion assay. In kind it is cell-based, human. The following applies: Lpathomab (15 mg/mL); 2 μM 14:0 LPA; n = 2.
The nature of assay [2]: Direct binding ELISA of anti-LPA mAbs to 12:0 LPA. As to the method:
The binding of 6 anti-LPA mAbs (B3, B7, B58, A63, B3A6, D22) to 12:0 and 18:1 LPA (0.1 uM) was measured by ELISA. EC50 values were calculated from titration curves using 6 increasing concentrations of purified mAbs (0 to 0.4 ug/ml). EC50 represents the effective antibody concentration with 50% of the maximum binding. Max denotes the maximal binding (expressed as OD450).
On the technique in general: In an ELISA, binding on a coated surface is turned into a signal by an enzyme label.

The subject of assay [3] is SKOV3 cell migration. Kind of assay: SKOV3 migration assay. It is filed as cell-based, human. Particulars: Lpathomab 150 μg/mL; 1 μM 18:1 LPA; n = 3.
The test system of assay [4] is IL-8 release in SKOV3 cells. The assay is described as follows: LPA-induced IL-8 release in SKOV3 cells. In kind it is cell-based, human. As to the method: Anti-LPA antibodies inhibit the LPA-dependant release of human CXCL8/IL-8 in conditioned media of SKOV3 ovarian cells. SKOV3 cells (Lot No 4255558, passage 14) were harvested with 2 ml of 1× Trypsin EDTA (Mediatech Inc, Cat. No 25-053-CV) and resuspended in 8 ml of complete medium (10% FBS, Mediatech Inc. Cat. no 35-011-CV). The cells were centrifuged for 5 min ([…]) and re-suspended in 5 ml of complete medium. Cells were counted in duplicate with 0.4% Trypan blue (10 ul cells plus 90 ul Trypan blue, Invitrogen, Cat. No 15250-061) using a hemocytometer. In a 96-well plate, 1×10^5 cells per well were seeded (final volume 100 ul/well). The cells were allowed to attach and form a confluent monolayer by incubating overnight at 37° C. On the following day, cells were gently washed two times with minimum media (1 mg/ml BSA in McCoy's medium with L-glutamine, Mediatech, Cat. No 10-050-CV). The media was adjusted to 1% penicillin/streptomycin (Mediatech, Cat. No 30-002 CI) and 2.2 g/L sodium-bicarbonate (Mediatech, Cat. No 25-035-CI). Next, the cells were serum-starved at 37° C. for exactly 24 h, followed by cytokine stimulation with 1 uM C18:1 LPA (Avanti, Cat. No 857130) dissolved in 1 mg/ml BSA/PBS (Calbiochem, Cat. No 126575) which was pre-incubated in presence or absence of humanized LPA antibody LT3015 (150, 300 or 600 ug/mL) for one hour. Treatments were then added to the cells. After 22 h of cytokine stimulation, the cells were centrifuged for 5 min (13,500 rpm) at 4° C. and the supernatants (cell-conditioned media) were collected. The CXCL8/IL-8 levels in each supernatant were measured using the Quantikine human CXCL8/IL-8 ELISA kit according to vendor instructions (R&D Systems, Minneapolis Minn., Cat. No D8000C). The IL-6 levels were measured by ELISA using the Quantikine human IL-6 immunoassay kit (R&D systems, Cat. No. D6050). Data were analyzed by one-way ANOVA followed by Bonferroni's post test and expressed as human IL-8 or human IL-6 fold increase.

The nature of assay [5]: Competition ELISA specificity, competitor Cer. The following applies: maximum inhibition, n = 3. It is filed as binding. As to the method: The specificity of the anti-LPA mAbs was assessed for their binding to LPA related biolipids such as distearoyl-phosphatidic acid, lysophosphatidylcholine, S1P, ceramide and ceramide-1-phosphate.
Assay [6] in a line: LPA competition ELISA (C18:0 LPA coat). Particulars: LPC, PA, 14:0 and 18:1 LPA, cPA, PC. It is filed as binding. As to the method:
The specificity of the humanized antibody was determined by competition ELISA. C18:0 LPA coating material was diluted to 0.33 ug/ml with carbonate buffer (100 mM NaHCO3, 33.6 mM Na2CO3, pH 9.5). Plates were coated with 100 ul/well of coating solution and incubated at 37° C. for 1 hour. The plates were washed 4 times with PBS ([…], pH 7.4) and blocked with 150 ul/well of PBS, 1% BSA, 0.1% tween-20 for 1 h at room temperature. The humanized, anti-LPA antibodies were tested against lipid competitors (14:0 LPA (Avanti, Cat. No 857120), 18:1 LPA (Avanti, Cat. No 857130), 18:1 LPC (Avanti, Cat. No 845875), cLPA (Avanti, Cat. No 857328), 18:1 PA (Avanti, Cat. No 840875), PC (Avanti, Cat. No 850454) at 5 uM, 2.5 uM, 1.25 uM, 0.625 uM, and 0.0 uM. The antibody was diluted to 0.5 ug/ml in PBS, 0.1% tween-20 and combined with the lipid samples at a 1:3 ratio of antibody to sample on a non-binding plate. The plates were washed 4 times with PBS and incubated for 1 hour at room temperature with 100 ul/well of the primary antibody/lipid complex. Next the plates were washed 4 times with PBS and incubated for 1 h at room temperature with 100 […] of HRP-conjugated goat anti-human antibody diluted 1:20,000 in PBS, 1% BSA, 0.1% tween-20. […] The optical density (OD) was measured at 450 nm using a Thermo Multiskan EX. […]

B1: LT3000: Murine anti-LPA monoclonal antibody clone B7, IgG1k, renamed Lpathomab, also known as LT3000; hybridoma 504B7.1, ATCC PTA-8420 (antibody, V domains shown)
VH: QVQLQQSGAELVRPGTSVKVSCKASGYGFINYLIEWIKQRPGQGLEWIGLINPGSDYTNYNENFKGKATLTADKSSSTAYMHLSSLTSEDSAVYFCARRFGYYGSGNYFDYWGQGTTLTVSS
VL: DVVMTQTPLSLPVSLGDQASISCTSGQSLVHINGNTYLHWYLQKPGQSPKLLIYKVSNLFSGVPDRFSGSGSGTDFTLKISRVEAEDLGVYFCSQSTHFPFTFGTGTKLEIK
With B1, the “Invasion, % Inhibition (over LPA taken as 100)” value in assay [1] was 95* %. Besides, in assay [2] (12:0 LPA 0.1 uM, mAb 0 to 0.4 ug/ml), the EC50 (usually the concentration needed to bring the measured effect to its halfway point) worked out at 0.413 nM. In assay [2] (maximal binding), the “Max (OD450), 12:0 LPA” value came to 1.395 OD450. Also, in assay [3], the “Migration, % Inhibition (over LPA taken as 100)” value is reported as 35* %. Besides, the “IL-8 Release, % Inhibition (over LPA taken as 100)” value in assay [4] (Lpathomab 300 μg/mL, 1 μM 18:1 LPA, n = 3) is 20%. In assay [4] (in vitro), the “IL-8 release from ovarian cancer cells” value was “reduced IL-8 release from ovarian cancer cells in a concentration-dependent manner”. Besides, the “MI (%), Cer” value in assay [5] came out at 1%. The cross-reactivity entry in assay [6] is “no cross-reactivity”.
